Reference: the supplement of paper PMC10065799, “High-throughput profiling of sequence recognition by tyrosine kinases and SH2 domains using bacterial peptide display” (eLife, 2023)

Legend:
[1] = tested on: AncSZ; assay: phosphorylation enrichment, bacterial display (enrichment ratio); higher = better substrate or ligand; peptides without Tyr show the background
[2] = target: EPHB1 (UniProt P54762); assay: as above
[3] = target: EPHB2 (UniProt P29323); assay: as above
[4] = target: FGFR1 (UniProt P11362); assay: as above
[5] = target: FGFR3 (UniProt P22607); assay: as above
Sequence of FGFR3 (P22607 whole entry, looked up): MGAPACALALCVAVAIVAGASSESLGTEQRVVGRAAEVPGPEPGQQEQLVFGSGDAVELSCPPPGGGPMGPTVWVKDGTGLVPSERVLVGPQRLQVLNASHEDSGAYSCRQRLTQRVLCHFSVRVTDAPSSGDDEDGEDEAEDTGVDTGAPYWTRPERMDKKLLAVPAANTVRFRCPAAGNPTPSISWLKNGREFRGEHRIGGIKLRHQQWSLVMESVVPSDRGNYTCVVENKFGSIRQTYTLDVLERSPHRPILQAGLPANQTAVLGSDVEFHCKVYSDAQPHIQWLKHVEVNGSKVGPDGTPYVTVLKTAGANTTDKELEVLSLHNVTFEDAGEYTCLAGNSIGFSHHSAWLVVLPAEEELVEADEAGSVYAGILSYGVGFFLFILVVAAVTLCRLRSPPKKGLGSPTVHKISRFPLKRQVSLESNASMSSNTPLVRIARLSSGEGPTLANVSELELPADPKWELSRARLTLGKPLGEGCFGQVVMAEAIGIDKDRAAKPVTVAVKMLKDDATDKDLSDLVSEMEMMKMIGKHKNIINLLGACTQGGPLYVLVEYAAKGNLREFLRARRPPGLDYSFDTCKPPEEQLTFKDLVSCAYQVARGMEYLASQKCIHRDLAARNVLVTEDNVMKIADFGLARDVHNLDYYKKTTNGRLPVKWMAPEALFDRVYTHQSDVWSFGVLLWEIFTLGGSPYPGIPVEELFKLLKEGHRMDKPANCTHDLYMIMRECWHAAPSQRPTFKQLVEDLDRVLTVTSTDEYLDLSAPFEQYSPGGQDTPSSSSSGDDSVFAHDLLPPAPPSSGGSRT

[6] = tested on: Fer (mouse); assay: as above
[7] = target: Fes (UniProt P07332); assay: as above
Sequence of Fes (P07332 whole entry, looked up): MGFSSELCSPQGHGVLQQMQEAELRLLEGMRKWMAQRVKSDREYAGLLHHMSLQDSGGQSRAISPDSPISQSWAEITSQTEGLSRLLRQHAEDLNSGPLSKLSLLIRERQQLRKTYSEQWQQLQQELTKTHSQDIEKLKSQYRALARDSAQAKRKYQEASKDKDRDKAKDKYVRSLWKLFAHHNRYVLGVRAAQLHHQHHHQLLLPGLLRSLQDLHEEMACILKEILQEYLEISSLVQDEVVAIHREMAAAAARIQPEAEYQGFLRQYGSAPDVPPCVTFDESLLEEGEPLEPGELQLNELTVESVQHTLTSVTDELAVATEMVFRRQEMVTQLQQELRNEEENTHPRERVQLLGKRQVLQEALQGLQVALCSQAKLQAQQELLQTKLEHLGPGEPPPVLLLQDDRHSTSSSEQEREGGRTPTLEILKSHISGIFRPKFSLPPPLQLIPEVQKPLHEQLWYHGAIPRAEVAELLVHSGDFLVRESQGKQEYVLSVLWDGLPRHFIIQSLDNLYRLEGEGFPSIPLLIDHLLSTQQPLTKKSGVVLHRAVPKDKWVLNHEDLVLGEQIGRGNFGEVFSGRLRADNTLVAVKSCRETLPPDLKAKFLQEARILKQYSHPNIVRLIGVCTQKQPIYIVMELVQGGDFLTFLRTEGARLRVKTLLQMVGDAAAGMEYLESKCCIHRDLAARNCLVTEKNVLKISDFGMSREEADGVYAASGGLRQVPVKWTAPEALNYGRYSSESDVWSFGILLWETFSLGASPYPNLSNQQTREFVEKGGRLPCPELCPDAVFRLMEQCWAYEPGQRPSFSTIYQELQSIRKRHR

[8] = target: Fyn (UniProt P06241); assay: as above
Sequence of Fyn (P06241 whole entry, looked up): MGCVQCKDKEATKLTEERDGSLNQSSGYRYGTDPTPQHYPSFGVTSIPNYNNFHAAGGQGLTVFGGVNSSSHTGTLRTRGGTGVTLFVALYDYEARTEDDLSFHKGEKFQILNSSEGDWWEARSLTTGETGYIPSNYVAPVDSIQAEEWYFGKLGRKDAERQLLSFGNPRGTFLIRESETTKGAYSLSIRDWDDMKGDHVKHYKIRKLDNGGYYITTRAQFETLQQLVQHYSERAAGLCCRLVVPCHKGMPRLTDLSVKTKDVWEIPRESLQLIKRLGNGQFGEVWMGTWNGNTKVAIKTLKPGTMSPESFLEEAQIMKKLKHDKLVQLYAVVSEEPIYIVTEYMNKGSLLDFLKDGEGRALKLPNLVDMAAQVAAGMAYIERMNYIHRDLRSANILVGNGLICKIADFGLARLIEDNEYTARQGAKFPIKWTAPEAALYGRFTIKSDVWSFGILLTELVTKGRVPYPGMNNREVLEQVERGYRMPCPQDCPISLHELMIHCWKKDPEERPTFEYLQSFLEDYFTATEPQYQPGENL

[9] = target: Hck (UniProt P08631); assay: as above
Sequence of Hck (P08631 whole entry, looked up): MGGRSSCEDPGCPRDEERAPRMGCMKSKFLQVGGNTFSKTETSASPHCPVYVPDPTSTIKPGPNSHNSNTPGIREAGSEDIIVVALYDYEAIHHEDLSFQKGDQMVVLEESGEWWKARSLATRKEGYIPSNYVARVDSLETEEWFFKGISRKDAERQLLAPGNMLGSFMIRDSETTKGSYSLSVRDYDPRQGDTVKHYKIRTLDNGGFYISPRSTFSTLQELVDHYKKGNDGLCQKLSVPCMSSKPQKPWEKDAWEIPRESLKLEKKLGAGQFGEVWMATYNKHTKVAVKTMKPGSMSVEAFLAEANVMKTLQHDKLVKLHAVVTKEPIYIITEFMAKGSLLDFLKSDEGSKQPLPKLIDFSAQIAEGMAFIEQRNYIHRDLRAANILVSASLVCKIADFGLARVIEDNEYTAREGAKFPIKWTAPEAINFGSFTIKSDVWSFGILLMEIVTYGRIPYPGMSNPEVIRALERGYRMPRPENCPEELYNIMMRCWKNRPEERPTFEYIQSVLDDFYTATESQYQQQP

[10] = target: Jak2 (UniProt O60674); assay: as above
[11] = target: MERTK (UniProt Q12866); assay: as above
[12] = tested on: c-Abl (mouse); assay: as above
[13] = tested on: c-Src; assay: as above
[14] = target: Grb2 SH2 (UniProt P62993); assay: SH2 binding enrichment of the phosphorylated peptide, bacterial display (enrichment ratio); higher = better substrate or ligand; peptides without Tyr show the background
Sequence of Grb2 SH2 (P62993 whole entry, looked up): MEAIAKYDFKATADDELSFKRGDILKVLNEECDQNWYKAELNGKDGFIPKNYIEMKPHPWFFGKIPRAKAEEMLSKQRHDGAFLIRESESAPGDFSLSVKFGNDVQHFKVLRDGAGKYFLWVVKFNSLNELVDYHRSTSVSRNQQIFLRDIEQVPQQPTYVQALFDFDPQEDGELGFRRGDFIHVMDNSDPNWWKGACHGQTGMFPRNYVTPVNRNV

[15] = target: SHP2-C SH2; assay: as above
[16] = target: c-Src SH2; assay: as above
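Throughout, for SH2 binding enrichment of the phosphorylated peptide, bacterial display: peptide library displayed on the E. coli surface as eCPX fusions, selected cells deep-sequenced, score is each peptide's frequency after selection divided by its frequency in the input.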
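Throughout, for phosphorylation enrichment, bacterial display: 11-residue human phosphosite peptides and single-mutation variants displayed on the E. coli surface, counted by deep sequencing, each peptide's frequency after selection divided by its frequency in the unselected input library; frequency after pTyr selection over input frequency; kinase dosed for 20-30% of maximal phosphorylation in three min.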

Sequence of EPHB2 (P29323 whole entry, looked up): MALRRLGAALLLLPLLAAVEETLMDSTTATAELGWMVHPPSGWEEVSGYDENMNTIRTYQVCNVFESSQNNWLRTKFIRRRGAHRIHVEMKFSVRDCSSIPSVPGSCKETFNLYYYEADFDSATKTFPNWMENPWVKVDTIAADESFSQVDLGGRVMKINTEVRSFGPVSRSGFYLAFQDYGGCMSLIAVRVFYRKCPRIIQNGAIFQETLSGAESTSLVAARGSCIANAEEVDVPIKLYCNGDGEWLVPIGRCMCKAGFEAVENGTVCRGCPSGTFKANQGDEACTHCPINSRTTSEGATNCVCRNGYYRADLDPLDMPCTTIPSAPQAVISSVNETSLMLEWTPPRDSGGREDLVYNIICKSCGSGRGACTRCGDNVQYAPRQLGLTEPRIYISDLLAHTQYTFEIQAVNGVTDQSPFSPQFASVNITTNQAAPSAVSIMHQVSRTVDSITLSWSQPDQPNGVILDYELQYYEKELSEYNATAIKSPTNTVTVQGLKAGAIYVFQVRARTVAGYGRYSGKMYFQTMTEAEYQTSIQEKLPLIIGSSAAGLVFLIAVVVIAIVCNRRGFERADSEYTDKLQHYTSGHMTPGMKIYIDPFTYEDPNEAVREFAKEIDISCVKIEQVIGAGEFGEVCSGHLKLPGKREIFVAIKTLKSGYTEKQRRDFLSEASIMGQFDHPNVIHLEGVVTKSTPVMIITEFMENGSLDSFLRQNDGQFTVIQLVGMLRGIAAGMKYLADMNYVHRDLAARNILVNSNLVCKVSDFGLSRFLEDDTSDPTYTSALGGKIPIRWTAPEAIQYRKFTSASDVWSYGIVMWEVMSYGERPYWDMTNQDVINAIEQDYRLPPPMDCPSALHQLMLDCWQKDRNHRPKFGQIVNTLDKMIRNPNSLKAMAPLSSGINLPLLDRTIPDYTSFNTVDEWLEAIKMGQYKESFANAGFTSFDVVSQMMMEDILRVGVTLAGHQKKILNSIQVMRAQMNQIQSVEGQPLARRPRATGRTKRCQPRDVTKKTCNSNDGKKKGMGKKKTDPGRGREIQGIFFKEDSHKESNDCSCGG
Sequence of EPHB1 (P54762 whole entry, looked up): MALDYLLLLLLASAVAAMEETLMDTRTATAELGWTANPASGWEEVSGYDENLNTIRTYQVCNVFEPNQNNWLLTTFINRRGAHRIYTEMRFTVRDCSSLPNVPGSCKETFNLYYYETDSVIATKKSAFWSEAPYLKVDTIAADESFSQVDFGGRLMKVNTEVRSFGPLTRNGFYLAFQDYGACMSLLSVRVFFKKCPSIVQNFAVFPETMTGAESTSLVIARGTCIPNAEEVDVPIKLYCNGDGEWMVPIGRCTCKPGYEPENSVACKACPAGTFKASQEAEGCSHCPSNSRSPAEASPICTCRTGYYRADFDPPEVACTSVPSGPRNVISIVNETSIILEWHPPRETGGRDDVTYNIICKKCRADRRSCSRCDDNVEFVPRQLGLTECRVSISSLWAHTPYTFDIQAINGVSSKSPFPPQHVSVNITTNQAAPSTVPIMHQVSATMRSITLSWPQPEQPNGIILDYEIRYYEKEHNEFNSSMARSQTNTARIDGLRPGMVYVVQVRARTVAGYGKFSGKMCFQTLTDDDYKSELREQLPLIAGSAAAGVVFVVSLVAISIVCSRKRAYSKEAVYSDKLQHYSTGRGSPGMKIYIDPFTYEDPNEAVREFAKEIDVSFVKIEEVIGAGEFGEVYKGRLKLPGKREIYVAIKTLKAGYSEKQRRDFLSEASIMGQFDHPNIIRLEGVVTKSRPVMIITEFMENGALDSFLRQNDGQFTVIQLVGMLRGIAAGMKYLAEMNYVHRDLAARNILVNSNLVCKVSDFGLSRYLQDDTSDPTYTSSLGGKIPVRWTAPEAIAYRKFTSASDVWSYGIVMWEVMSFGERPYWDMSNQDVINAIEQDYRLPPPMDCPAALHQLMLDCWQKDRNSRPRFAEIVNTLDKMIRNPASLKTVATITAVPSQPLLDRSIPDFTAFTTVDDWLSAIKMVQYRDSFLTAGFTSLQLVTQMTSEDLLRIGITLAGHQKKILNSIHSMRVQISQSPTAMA

| Sequence | phosphorylation enrichment [1] | phosphorylation enrichment [2] | phosphorylation enrichment [3] | phosphorylation enrichment [4] | phosphorylation enrichment [5] | phosphorylation enrichment [6] | phosphorylation enrichment [7] | phosphorylation enrichment [8] | phosphorylation enrichment [9] | phosphorylation enrichment [10] | phosphorylation enrichment [11] | phosphorylation enrichment [12] | phosphorylation enrichment [13] | SH2 binding enrichment [14] | SH2 binding enrichment [15] | SH2 binding enrichment [16] |
| --- | --- | --- | --- | --- | --- | --- | --- | --- | --- | --- | --- | --- | --- | --- | --- | --- |
| SVIVPYEPPEV [TP53_Y220_V217I] | 1.1 | 0.622 | 0.618 | 0.6 | 0.81 | 0.631 | 1.23 | 0.654 | 0.517 | 1.08 | 0.447 | 0.831 | 0.445 | 0.731 | 0.712 | 1.28 |
| FFRKVYHLASV [RBL1_Y796_YF] | 0.697 | 0.439 | 0.415 | 0.46 | 0.545 | 0.374 | 0.781 | 0.491 | 0.337 | 0.713 | 0.36 | 0.581 | 0.503 | 0.979 | 0.721 | 0.667 |
| RYLKDYGEFEV [GINS1_Y156_C152Y] | 1.75 | 1.16 | 0.839 | 1.16 | 1.36 | 1 | 1.6 | 1.54 | 1 | 1.2 | 0.792 | 0.771 | 1.69 | 0.972 | 1.37 | 0.593 |
| HFGCIYHGTLL [MET_Y1093_V1092I] | 1.4 | 0.714 | 0.951 | 0.984 | 0.931 | 0.716 | 1.46 | 1 | 0.949 | 1.38 | 0.527 | 1.34 | 4.15 | 0.758 | 0.548 | 0.58 |
| VSSPKYGGDDE [TMCC2_Y473_S475G] | 0.96 | 0.437 | 0.379 | 0.477 | 0.573 | 0.451 | 0.903 | 0.535 | 0.429 | 0.631 | 0.416 | 0.517 | 0.424 | 1.06 | 0.54 | 0.482 |
| PRIHSYRGHLW [VHL_Y112_R107P] | 1.01 | 1.56 | 0.451 | 0.771 | 0.579 | 0.722 | 1.08 | 0.611 | 0.713 | 0.628 | 0.655 | 1.09 | 0.748 | 1.55 | 1.86 | 1.89 |
| TVHCDYLNISH [TAF1L_Y1385_P1389S] | 1.1 | 1.55 | 0.634 | 2.38 | 1.69 | 0.546 | 1.04 | 0.451 | 0.562 | 1.29 | 0.373 | 0.663 | 0.588 | 1.17 | 0.58 | 0.567 |
| SHNKYYMLVAR [MFSD8_Y134] | 0.825 | 0.943 | 0.675 | 5.4 | 3.28 | 0.486 | 0.939 | 0.494 | 0.658 | 1.14 | 2.9 | 0.6 | 0.487 | 1.77 | 15.5 | 1.92 |
| KALSLYTKLMN [STAM_Y371_E366K] | 1.36 | 0.673 | 0.774 | 0.555 | 0.872 | 0.588 | 1.32 | 0.46 | 0.537 | 1.14 | 0.446 | 0.605 | 0.393 | 1.12 | 3.1 | 2.23 |
| IMAFFYMCDSA [CASD1_Y382_R386S_YF] | 1.44 | 0.896 | 0.782 | 0.791 | 1.12 | 0.805 | 1.78 | 0.548 | 0.658 | 1.41 | 0.401 | 1.11 | 0.596 | 1.1 | 0.725 | 0.551 |
| NTQRPHYKGGG [TYROBP_Y111_Y111H] | 0.428 | 0.326 | 0.332 | 0.316 | 0.486 | 0.422 | 0.549 | 0.402 | 0.384 | 0.491 | 0.391 | 0.605 | 0.361 | 1.44 | 1.77 | 1.01 |
| RVGVDYEGRGC [PLOD1_Y675_G678R] | 1.01 | 0.69 | 0.464 | 0.617 | 0.709 | 0.51 | 1.02 | 0.542 | 0.528 | 0.616 | 0.59 | 0.575 | 0.424 | 0.902 | 0.797 | 0.638 |
| ESMNTYLQTSP [NAT1_Y208] | 1 | 0.584 | 0.511 | 0.584 | 0.664 | 0.539 | 0.947 | 0.469 | 0.655 | 0.825 | 0.412 | 0.693 | 0.477 | 0.642 | 0.795 | 0.471 |
| ESKAGYRVPRS [CLDN7_Y195] | 0.543 | 0.303 | 0.327 | 0.305 | 0.352 | 0.52 | 0.583 | 0.369 | 0.416 | 0.524 | 0.339 | 0.681 | 0.43 | 0.83 | 0.699 | 0.544 |
| TWSPKYTLRSH [STRN3_Y474_N471S] | 0.735 | 0.593 | 0.477 | 0.353 | 0.529 | 0.389 | 0.87 | 0.445 | 0.419 | 0.728 | 0.426 | 0.52 | 0.348 | 1.28 | 1.16 | 1.2 |
| IGDENYGEGSS [ACO2_Y665] | 1.25 | 0.511 | 0.606 | 0.533 | 0.738 | 0.518 | 1.18 | 0.529 | 0.59 | 1.39 | 0.586 | 0.882 | 0.522 | 0.814 | 0.86 | 0.449 |
| VRTGIYHGGEP [PIK3CA_Y361] | 0.641 | 0.419 | 0.421 | 0.542 | 0.407 | 0.457 | 0.659 | 0.568 | 0.586 | 0.558 | 0.431 | 0.496 | 0.498 | 0.888 | 0.588 | 0.51 |

| Sequence | phosphorylation enrichment [1] | phosphorylation enrichment [2] | phosphorylation enrichment [3] | phosphorylation enrichment [4] | phosphorylation enrichment [5] | phosphorylation enrichment [6] | phosphorylation enrichment [7] | phosphorylation enrichment [8] | phosphorylation enrichment [9] | phosphorylation enrichment [10] | phosphorylation enrichment [11] | phosphorylation enrichment [12] | phosphorylation enrichment [13] | SH2 binding enrichment [14] | SH2 binding enrichment [15] | SH2 binding enrichment [16] |
| --- | --- | --- | --- | --- | --- | --- | --- | --- | --- | --- | --- | --- | --- | --- | --- | --- |
| PEADKYRLTYA [FGG_Y300] | 1.61 | 0.832 | 1.09 | 0.888 | 1.14 | 0.828 | 1.51 | 0.626 | 1.62 | 1.13 | 0.777 | 0.825 | 0.604 | 0.806 | 0.736 | 0.392 |
| NTCNRYCCDEI [ITGB3_Y660_R662C] | 1.44 | 0.694 | 0.594 | 0.595 | 0.88 | 0.612 | 1.49 | 0.577 | 0.574 | 1.43 | 0.538 | 1.03 | 0.541 | 0.841 | 0.752 | 0.557 |
| WYQTKYEELQV [KRT6B_Y360_I365V] | 1.11 | 0.61 | 0.707 | 0.521 | 0.753 | 0.568 | 1.28 | 0.519 | 0.723 | 1.02 | 0.394 | 0.741 | 0.452 | 0.832 | 0.834 | 6.2 |
| PRQRRYVYYYS [PTEN_Y174_S170R] | 1.05 | 0.656 | 1.02 | 0.753 | 0.929 | 0.904 | 0.683 | 0.882 | 0.911 | 0.979 | 0.877 | 0.769 | 0.728 | 0.909 | 0.839 | 0.413 |
| REEKNYKHKET [BCLAF1_Y459_L461H] | 0.829 | 0.422 | 0.55 | 0.635 | 0.431 | 0.647 | 1.45 | 0.436 | 0.53 | 0.571 | 0.688 | 0.917 | 0.741 | 0.93 | 0.46 | 0.624 |
| IQSAKYDMAED [TTC21B_Y1213] | 1.21 | 0.572 | 0.724 | 0.611 | 0.793 | 0.503 | 1.21 | 0.59 | 0.687 | 1.2 | 0.484 | 0.825 | 0.513 | 0.823 | 0.679 | 1.3 |
| HNELYYEEAEH [VANGL1_Y345] | 2.06 | 1.21 | 0.993 | 1.63 | 2.08 | 1.81 | 1.53 | 0.751 | 0.798 | 1.32 | 1.11 | 0.936 | 0.708 | 0.871 | 0.95 | 0.798 |
| HCHEGYILHGA [SVEP1_Y2921] | 1.45 | 1.27 | 0.746 | 0.722 | 0.768 | 0.45 | 1.78 | 0.888 | 0.827 | 1.94 | 0.945 | 1.61 | 1.12 | 1.01 | 1.21 | 0.812 |
| LLTALYFISRG [KCNH2_Y780] | 1.57 | 0.645 | 0.859 | 0.8 | 0.71 | 0.716 | 1.69 | 0.732 | 1.24 | 1.25 | 3.27 | 1.05 | 1.81 | 2.34 | 1.99 | 2.43 |
| VPLLEYYWDIF [CDAN1_Y712_R714W] | 1.43 | 2.27 | 1.54 | 7.97 | 6.87 | 0.521 | 1.46 | 0.879 | 0.813 | 2.12 | 1.54 | 0.923 | 1.67 | 1.54 | 1.08 | 1.12 |
| SVTCTYSPALH [TP53_Y126_N131H] | 1.28 | 0.71 | 0.62 | 0.487 | 0.724 | 0.492 | 1.41 | 0.545 | 0.556 | 1.23 | 0.413 | 0.808 | 0.741 | 0.617 | 0.532 | 0.402 |
| LPIQTYSALNF [DES_Y423] | 1.01 | 14.3 | 11.7 | 2.1 | 2.07 | 11.1 | 1.24 | 13.8 | 18.9 | 1.27 | 15.9 | 1.59 | 8 | 0.735 | 0.834 | 1.08 |
| SDVCMYRKNIF [SYNE2_Y570_YF] | 0.906 | 0.536 | 0.479 | 0.48 | 0.712 | 0.354 | 1.12 | 0.371 | 0.355 | 0.931 | 0.448 | 0.793 | 0.436 | 0.794 | 0.74 | 0.554 |
| GQLIVYAPPEW [CNTN6_Y315_F314V] | 1.02 | 0.574 | 1.66 | 0.513 | 0.665 | 0.619 | 0.985 | 1.81 | 2.22 | 0.932 | 1.37 | 9.23 | 1.75 | 0.984 | 0.767 | 0.53 |
| PVGVLYEVKVY [PTS_Y128_K129E] | 1.64 | 0.945 | 0.552 | 0.783 | 1.02 | 0.56 | 1.67 | 0.775 | 0.728 | 1.78 | 0.55 | 2.37 | 0.585 | 0.966 | 0.725 | 0.537 |
| GFPVRYTDVSN [DNMT3B_Y815_H814R] | 0.606 | 0.678 | 0.441 | 0.457 | 0.531 | 0.398 | 0.665 | 0.423 | 0.451 | 0.712 | 0.466 | 0.529 | 0.448 | 0.96 | 1.38 | 1.24 |
